In test [1] the target is T1, human interleukin 5 (recombinant human IL-5, expressed in Drosophila Schneider 2 cells) (human, UniProt P05113 20-134).
T1 construct: also called hIL-5
Put plainly: optical biosensor.

In test [2] the target is T1, human interleukin 5 (recombinant human …). Put plainly: IL-5R alpha binding inhibition assay (125I-IL-5, Drosophila membranes). The procedure: Assays with *Drosophila* membranes containing receptor were performed in MultiscreenGV™ plates (Millipore Corp., Bedford, Mass.) using *Drosophila* tissue culture medium M3 (Lindquist et al., *Drosophila Inf. Serv.*, 58: 163 (1982)) containing 25 mM HEPES buffer pH 7.2 and 0.1% BSA (Binding Buffer). Wells were pre-blocked with 0.1 ml binding buffer. […] After 20 minutes incubation at room temperature, 25 ul of the membrane extract of *Drosophila* S2 cells expressing the α-chain of the human IL5R was added to the wells. After 1 hour further incubation the membranes were collected by vacuum filtration and washed 3× with binding buffer. Filters were dried and counted.
The Fd and κ cDNAs of mAb (2B6) were isolated by PCR using the conditions described above. The gel-purified fragments were subcloned into the pMKFabGene3 vector which had been modified to include the hexa-His sequence 3' of the gene III cDNA, resulting in the plasmid pMKFabGene3H. A functional, IL-5 binding Fab clone containing the 2B6 heavy and light chains was identified by a colony lift assay. Upon removal gene III via Nhe I/SpeI I digestion and self-ligation the heavy chain was fused in frame to the hexa-His, allowing purification as described above.

B1: recombinant Fab containing the 2B6 heavy and light chains (Fd fused to hexa-His) (Fab)
heavy (part 1 of 2): QVQLKESGPGLVAPSQSLSITCTVSGFSLTSYSVHWVRQPPGKGLEWLGVIWASGGTDYNSALMSRLSISKDNSKSQVFLKLNSLQTDDTAMYYCARDPPSSLLRLDYWGQGTTLTVSS
heavy (part 2 of 2): HHHHHH
light: DIVMTQSPSSLSVSAGEKVTMSCKSSQSLLNSGNQKNYLAWYQQKPGQPPKLLIYGASTRESGVPDRFTGSGSGTDFTLSISSVQAEDLAVYYCQNVHSFPFTFGSGTELEIK
notes: Expressed in E. coli from pMKFabGene3H after removal of gene III; also called Fab fragment from 2B6; 2B6 Fab; not shown: murine CH1 (rest of the 2B6 Fd); murine kappa constant region
With B1, in test [1], the Kd is ~0.09 nM. In test [2], the IC50 was ~7.5 µg/mL.
